The values below come from EP1562972B1.

In general, IC50 refers to the point on the concentration scale where inhibition reaches its midpoint.

In test [1] the target is human neonatal Fc receptor (FcRn), recombinant GPI-linked, on NS0 cells (human) (UniProt P55899). Put plainly: competition flow cytometry, NS0 cells with human FcRn, vs biotinylated OST577-IgG1, FBB pH 6.0.
The target in test [2] is rhesus neonatal Fc receptor (FcRn), recombinant GPI-linked, on NS0 cells (rhesus) (UniProt H9Z6D2). Briefly: competition flow cytometry, NS0 cells with rhesus FcRn, vs biotinylated OST577-IgG1, FBB pH 6.0. (A flow cytometer gives signals particle by particle.)
For test [3], the target named is human neonatal Fc receptor (FcRn), recombinant GPI-linked, on NS0 cells (human) (UniProt P55899). Put plainly: competition flow cytometry, NS0 cells with human FcRn, vs biotinylated HuEP5C7-IgG2M3, FSB pH 6.0.
Test [4] has the same target. Put plainly: competition flow cytometry, NS0 cells with human FcRn, vs biotinylated HuEP5C7-IgG2M3, FBB pH 6.0.
For test [5] the target is unchanged. Put plainly: competition flow cytometry, NS0 cells with human FcRn, vs biotinylated OST577-IgG2M3, FBB pH 6.0.
The target in test [6] is rhesus neonatal Fc receptor (FcRn), recombinant GPI-linked, on NS0 cells (rhesus) (UniProt H9Z6D2). Put plainly: competition flow cytometry, NS0 cells with rhesus FcRn, vs biotinylated OST577-IgG2M3, FBB pH 6.0.

Chain of human neonatal Fc receptor (FcRn), recombinant GPI-linked, on NS0 cells (human) (P55899 24-297, chain 1 of 2): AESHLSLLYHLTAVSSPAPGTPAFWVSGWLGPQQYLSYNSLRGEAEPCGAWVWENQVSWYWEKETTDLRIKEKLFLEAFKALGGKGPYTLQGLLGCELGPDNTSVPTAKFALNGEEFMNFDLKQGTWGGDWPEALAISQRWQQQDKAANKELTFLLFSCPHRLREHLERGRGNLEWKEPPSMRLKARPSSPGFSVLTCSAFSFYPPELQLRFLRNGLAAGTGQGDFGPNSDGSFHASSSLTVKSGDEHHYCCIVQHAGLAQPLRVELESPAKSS
Chain of human neonatal Fc receptor (FcRn), recombinant GPI-linked, on NS0 cells (human) (P61769 21-119, chain 2 of 2, further chain): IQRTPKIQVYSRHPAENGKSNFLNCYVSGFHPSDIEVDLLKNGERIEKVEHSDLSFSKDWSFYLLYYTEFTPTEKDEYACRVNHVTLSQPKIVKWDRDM

As for OST577-IgG1 M428L mutant (antibody), the IC50 in test [1] stood at 0.896 µg/mL; in test [2] it was 0.629 µg/mL. In test [2], the Relative Binding (ratio (IC50 wild-type / IC50 mutant)) came to 14.

With OST577-IgG2M3 M428F mutant (antibody), the IC50 in test [3] came to 3.4 µg/mL; in test [4], 2.97 µg/mL.

“OST577-IgG2M3 T250Q/M428L double mutant (antibody)”: the IC50 in test [5] came out at 0.43 µg/mL; in test [6], 0.554 µg/mL. The Relative Binding (ratio (IC50 wild-type / IC50 mutant)) in test [6] was found to be 27.

On to OST577-IgG2M3 L314Q mutant (antibody), for which, in test [3], the IC50 stood at 32 µg/mL and the Relative Binding (ratio (IC50 wild-type / IC50 mutant)) turned out to be 0.33.

With OST577-IgG2M3 M428L mutant (antibody), in test [5], the concentration for half-maximal inhibition (IC50) is 1.79 µg/mL and the Relative Binding (ratio (IC50 wild-type / IC50 mutant)) came out at 6.7. Also, in test [6], the IC50 was found to be 1.92 µg/mL and the Relative Binding (ratio (IC50 wild-type / IC50 mutant)) was 7.7.

For the substance OST577-IgG2M3 L314W mutant (antibody), in test [3], the IC50 was found to be 20.2 µg/mL and the Relative Binding (ratio (IC50 wild-type / IC50 mutant)) was 0.53.

For OST577-IgG1 M428F mutant (antibody), in test [1], the IC50 was found to be 3.44 µg/mL and the Relative Binding (ratio (IC50 wild-type / IC50 mutant)) worked out at 4.

Consider OST577-IgG2M3 L314R mutant (antibody), for which the IC50 in test [3] was 102 µg/mL.

Take OST577-IgG2M3 L314A mutant (antibody): in test [3], the IC50 is 68.7 µg/mL and the Relative Binding (ratio (IC50 wild-type / IC50 mutant)) came to 0.16.

On to “OST577-IgG1 T250Q/M428L double mutant (antibody)”, for which, in test [1], the IC50 came to 0.351 µg/mL and the Relative Binding (ratio (IC50 wild-type / IC50 mutant)) was determined as 29. In test [2], the IC50 worked out at 0.236 µg/mL and the Relative Binding (ratio (IC50 wild-type / IC50 mutant)) stood at 37.
